Experimental data from PMC6642127.

Molecular target: P8 carrier peptide (Influenza H5N1)
Test: AUC

Substance: P8 carrier peptide
- percent of the peptide as trimers: 70%
- stoichiometry N: 3
